Laboratory results as given in a protein production outcome set (Wang et al. 2014).

Assay: label from the status in PepcDB records
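Further: failed if final PepcDB status was selected cloned or expressed and not failed if soluble or beyond.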

| Sequence | protein production |
| --- | --- |
| MCDTFVEFIQLEETVKHDENGKPVKRLRRRETLVHSENVAGRSFWNEHSSLHKDLGHFAKDIGKIEPDYVKSFQFESRLLPLTWVVVRIDGCHFHRFSEVHEFEKPNDEQALKLMNSCAVAVLEEFQDIAFAYGVSDEFSFVLKNKSELYKRQSSKIISAVVSFFTSTYMMRWGDFFPHKKLKYPPSFDGRAVCYPTSDILLDYLAWRQVDCHINNQYNTCFWMLVKSGKSKIQAQDYLKGTQTREKNELLSQQFGIEYNSLPVIFRMGSSVFRLKVLLLLSYSKILLVFHSRFLLL | failed |
| MCIAIPGKMTAIVDENTATIDMGGICRDVNMALMGGAEESMIGKHFLVHVGYAISEISEEESEETMRLLKIMAGLEEIDSFE | not failed |
| MCIQKVIEDKLSSALKPTFLELVDKSCGCGTSFDAVIVSNNFEDKKLLDRHRLVNTILKEELQNIHAFSMKCHTPLEYDKLKSK | not failed |
| MCKNSQYLHLPDEIPQQLMLLWESSDEVWGFKDLDSHYLYANNPFIELLNFPPEFCIKGLLDDELPHPSFAKFSSQFREQELLAAITKKRVSSIEMHYFGREQKLQPYLFDKFPLLNSKKECLGIIF | failed |
| MCLGMAGEHMAPNSKHLSLHMPVDFIDALAQAESIDEILKVVATWFMEMFVADRASITFPVNDSHLRVVALEGNRVIDVDAPVPIHGTMVGRVFSRGQAEICDDLAASTDLDCLILASRGLGSCLDAPLRSGRDCYGTINVGRRDRNGFTLADMRKIEALAMWIATLIRVHRQVERLTHLSRTDPLTQIMNRRAFTESFQTRRLEGERRRAEVGTGLGFAVVDIDHFKQINDTYGHDVGDVVLAFVGKMMNEFFRESDCVARFGGEEFCVLMQDVDEGGMQRLLERFRVALGDCVVTHSAGTVSITASIGAVLVKTSVAGIDRAFRSADLALYKAKADGRNRVRIAPSAEQSHAGNPANRLCYPG | failed |
| MCPKNASYYGNRAATLMMLGRFREALGDAQQSVRLDDSFVRGHLREGKCHLSLGNAMAACRSFQRALELDHKNAQAQQEFKNANAVMEYEKIAETDFEKRDFRKVVFCMDRALEFAPACHRFKILKAECLAMLGRYPEAQSVASDILRMDSTNADALYVRGLCLYYEDCIEKAVQFFVQALRMAPDHEKACIACRNAKALKAKKEDGNKAFKEGNYKLAYELYTEALGIDPNNIKTNAKLYCNRGTVNSKLRKLDDAIEDCTNAVKLDDTYIKAYLRRAQCYMDTEQYEEAVRDYEKVYQTEKTKEHKQLLKNAQLELKKSKRKDYYKILGVDKNASEDEIKKAYRKRALMHHPDRHSGASAEVQKEEEKKFKEVGEAFTILSDPKKKTRYDSGQDLDEEGMNMGDFDPNNIFKAFFGGPGGFSFEASGPGNFFFQFG | failed |
| MCSMASHDLSVFLEEFGATVNLTLPGIVSEKERLLLKLLMEGMSVTEISQYRNRSAKTISHQKKQLYEKLGIQSDITFWRDIFFQYHPQVISGTGNKNNFYIPDNRCHHIVTPEAISLALENHEFKPWIQPVFCAQTGVLTGCEVLVRWEHPQTGIIPPDQFIPLAESSGLIVIMTRQLMKQTADILMPVKHLLPDNFHIGINVSAGCFLAAGFEKECLNLVKKLGNDKIKLVLELTERNPIPVTPEARAIFDSLHQHNITFALDDFGTGYATYRYLQAFPVDFIKIDKSFVQMAGVDEISGHIVDNIVELARKPGLSIVAEGVETQEQADLMIGKGVHFLQGYLYSPPVPGNKFISEWVMKAGG | failed |
| MCWPAPPRPSRRSSNGSPLLWQPGGYDRPPPPCRSLPHVCQNFVVRGCLMTISGGTFDPSICEMEPIATPGAIQPHGALMTARADSGRVAHASVNLGEILGLPAASVLGAPIGEVIGRVNEILLREARRSGSETPETIGSFRRSDGQLLHLHAFQSGDYMCLDIEPVRDEDGRLPPGARQSVIETFSSAMTQVELCELAVHGLQLVLGYDRVMAYRFGADGHGEVIAERRRQDLEPYLGLHYPASDIPQIARALYLRQRVGAIADACYRPVPLLGHPELDDGKPLDLTHSSLRSVSPVHLDYMQNMNTAASLTIGLADGDRLWGMLVCHNTTPRIAGPEWRAAAGMIGQVVSLLLSRLGEVENAAETLARQSTLSTLVERLSTGDTLAAAFVAADQLILDLVGASAAVVRLAGQELHFGRTPPVDAMQKVLDSLGRPSPLEVLSLDDVTLRHPELPELLAAGSGILLLPLTSGDGDLIAWFRPEHVQTITWGGNPAEHGTWNPATQRMRPRASFDAWKETVTGRSLPWTSAERNCARELGEAIAAEMAQRTRAELARLRHYDPLTGLANRSYLQERLAQDGQSAAALLFIDLDRFKAVNDSMGHGVGDGLLIEVARSLVATVRPHDLVVRLGGDEFVVLCHRLDAAGIVSLAERLRQVLEQPFEVAGRKCHISASIGIAMADSIGDLDLVRAADIAMYAAKKNGGNRGELFRPSLYEETTQLVELDNDMRGAIESEQFHLVYQPIFALNPETERLVGFEALLRWDHPLHGALQPGIFIPLAERLGHIHAMGNWVLRRAILQLQAFRSAGPELDLKMNVNVSPLQLARPDFLARLADLLAQVPDLPRHALCLEITETSLSDEAVSEALISIRALGVRIAIDDFGTGFSSLACLRRLPVDVAKLDRAFLGGGHTAAQDHRFFAAVTGLVHAADLKVVQEGIETLDQLALVRAAGADFAQGFHLAAPLSIAAALGLIAASRKE | failed |
| MCWVCGENLQAQPYMFRNVVMSDGLSGLLVNAIYKDSEGFIWLGTDNGLDRFDGVKVKHFEFRGVDSGRKKRVNCITETDNKQLWIGNGIGLWRLNRSGSELQRIVPEKIDCAVNALLADGDVLYIGTERGLFIQKDGQLLQVQTDKNMLAACNRIMDLCLNEDKSVLWLATVQGLFSYSLKDGQINSWHFRENVPEADYFRCLTRIGETLYLGTMSQGVVCFDIPKQTFAHTVSLGCDVISDISGDGKETVYIATDGNGVHFLSHKDRKVVRRFFHDVNDKEGIRSNSIYSLLVDDRGAVWVGHFQAGLDYSLYQNGLFRTYAYPPQFNSANLSIRSFVNRGPEKVIGSRDGLFYINEATGIVKSFVKPVLTSDLILTICFYEGEYYIGTYGGGMMVLNPQTLSLKYFTQGDTELFQKGHIFCVKPDNRGNLWIGTSQGLFCYNGQTKQIKNFTSTNSQLPEGNVYEVSFDSTGKGWIATETGMCIYDPASQSLRSNVFPEGFVHKDKVRTIYEDAEHNLYFIREKGSLFTSTLTMDHFRNQSVLSTLPDNSLMSITEDNQGWLWVGCNDGLLRIKEEGEEYDSFTFNDGVPGPTFTNGAAYKDERGLLWFGNTKGLIYVDPKQVDEVRGKVRPIVFTDILANGVSINKSSLKYNQNNLTFCFTDFAYGLPSALLYEYKLEGADSDWKLLTAQSEVSYYGLSSGTYTFCVRIPGNEQSMAIYKVTVQPMIPWWGWVILAISIILIVVLVRYYVRKSAPLVTEVHEISSEEEEEEEKTAEPHPAEEKYKANRMSEAECKELHDRLVAYVEKEKPYINPDLKMGELAAALHTSSHSLSYLLNQYLNQSYYDFINEYRVAQFKKMVEDSDYSRYTLTALAELCGFSSRASFFRSFKKSTGVTPNEYIRSIGGTAKDE | failed |
| MDAAVTDDFQQILPIEQLRSTHASNDYVERPPAPCKQALSSPSLIVQTHKSDWSLATMPTSLPRSLSQCHQLQPLPQHLSQSSIASSMSHSTTASDQRLLASITPSPSGQSIIRTQPGAGVHPKADGALKGEAEQSAGHPSEHLFICEECGRCKCVPCTAARPLPSCWLCNQRCLCSAESLLDYGTCLCCVKGLFYHCSTDDEDNCADEPCSCGPSSCFVRWAAMSLISLFLPCLCCYLPTRGCLHLCQQGYDSLRRPGCRCKRHTNTVCRKISSGSAPFPKAQEKSV | failed |
| MDAKEDVRPTGRGGRGVTAKSHVIVTSNMSVRQFLDVKYTTMNLNLFLSLDPIVDDNQNTLIKKDCSGRVDKDKGIVGDAQVFYTNGFKMSAMVTKHTNRSYLNNPTSIRRKLFDDAGVKGSNGVVRFHSVETSNVVTISVVNDFYNNEMGDDGVTNVTGIIRLARSTNGDSN | failed |
| MDALLTKFNEDRSLQDENLSQPRTRVRIVDDNLYNKSNPFQLCYKKRDYGSQYYHIYQYRLKTFRERVLKECDKRWDAGFTLNGQLVLKKDKVLDIQGNQPCWCVGSIYCEMKYKPNVLDEVINDTYGAPDLTKSYTDKEGGSDEIMLEDESGRVLLVGDFIRSTPFITGVVVGILGMEAEAGTFQVLDICYPTPLPQNPFPAPIATCPTRGKIALVSGLNLNNTSPDRLLRLEILREFLMGRINNKIDDISLIGRLLICGNSVDFDIKSVNKDELMISLTEFSKFLHNILPSISVDIMPGTNDPSDKSLPQQPFHKSLFDKSLESYFNGSNKEILNLVTNPYEFSYNGVDVLAVSGKNINDICKYVIPSNDNGESENKVEEGESNDFKDDIEHRLDLMECTMKWQNIAPTAPDTLWCYPYTDKDPFVLDKWPHVYIVANQPYFGTRVVEIGGKNIKIISVPEFSSTGMIILLDLETLEAETVKIDI | failed |
| MDANEFHWLMDMLESVEVGLVVLDLDFHVQAWNGFMEHHSGITARQIRDKVLFEVFPDIPEAWLTRKVDAVAMLNTRAFTSWEQRPYLFKFRNTRPITGTEEYMFQNLTISPITAPNGEVEKVCLLVYDVTEFASSKRALERANEQLAKLSMTDRLTGLLNRGTWENLVDAEYERFRRYGQATSLVMFDIDHFKPVNDTYGHLAGDEVIRHTADVTRNNIRQSDSAGRYGGEEFGIILPETDAESARVICERIREAIEKSTVSTSAGDIQYTVSMGIAQLTETPENYMQWMQKADEALYKAKESGRNKVVVSLEHHHHHH | failed |
| MDAPKAGYAFEYLIETLNDSSHKKFFDVSKLGTKYDVLPYSIRVLLEAAVRNCDGFLMKKEDVMNILDWKTKQSNVEVPFFPARVLLQDFTGIPAMVDFAAMREAVKTLGGDPEKVHPACPTDLTVDHSLQIDFSKCAIQNAPNPGGGDLQKAGKLSPLKVQPKKLPCRGQTTCRGSCDSGELGRNSGTFSSQIENTPILCPFHLQPVPEPETVLKNQEVEFGRNRERLQFFKWSSRVFKNVAVIPPGTGMAHQINLEYLSRVVFEEKDLLFPDSVVGTDSHITMVNGLGILGWGVGGIETEAVMLGLPVSLTLPEVVGCELTGSSNPFVTSIDVVLGITKHLRQVGVAGKFVEFFGSGVSQLSIVDRTTIANMCPEYGAILSFFPVDNVTLKHLEHTGFSKAKLESMETYLKAVKLFRNDQNSSGEPEYSQVIQINLNSIVPSVSGPKRPQDRVAVTDMKSDFQACLNEKVGFKGFQIAAEKQKDIVSIHYEGSEYKLSHGSVVIAAVISCTNNCNPSVMLAAGLLAKKAVEAGLRVKPYIRTSLSPGSGMVTHYLSSSGVLPYLSKLGFEIVGYGCSTCVGNTAPLSDAVLNAVKQGDLVTCGILSGNKNFEGRLCDCVRANYLASPPLVVAYAIAGTVNIDFQTEPLGTDPTGKNIYLHDIWPSREEVHRVEEEHVILSMFKALKDKIEMGNKRWNSLEAPDSVLFPWDLKSTYIRCPSFFDKLTKEPIALQAIENAHVLLYLGDSVTTDHISPAGSIARNSAAAKYLTNRGLTPREFNSYGARRGNDAVMTRGTFANIKLFNKFIGKPAPKTIHFPSGQTLDVFEAAELYQKEGIPLIILAGKKYGSGNSRDWAAKGPYLLGVKAVLAESYEKIHKDHLIGIGIAPLQFLPGENADSLGLSGRETFSLTFPEELSPGITLNIQTSTGKVFSVIASFEDDVEITLYKHGGLLNFVARKFS | not failed |
| MDCIRNNSVLINNLSSFTSGIMSSGYSPFYILYIAMNIATLTYAVGTLFYGLPIPIYGLKKWGPRMMSDAIYAAVWVNIYGIIIFAIGQIQSLLGVDWSSFFSSILQLQANMFSALIQVKSLYYIITTEKISMALALLADPVLQFSSFITDIIFLLQFFIDLGEFIQQSYMILIAIGILLLSLPFRMGKGVGGTLISSAIIFYIGLPYLPIFMQEMSSITLSQIGSQLSTITDVNTLVETIAGVVPELVIVFIIIPMLYLSILAGISLGLGNAIGGSSGRVPFPLDLF | failed |
| MDCKKFIQMVEEKKRRVLEKQEAPLKWEQKLEAAANAKADTETKVKRSKGPKRKQRAASESSSESDSSSEVRRKSRRSHNKHRRHAHSDSDDSDRRKEKKSRRQKRRSLSPSDDSTGDYESGSEDELRMKIKHHRRHKWHSSRKTCDDDSTEDVRRKHLKHHRRSEVVTSSDSEEESGRRRRGKYHRHNRGSASSSGSEEDSGKSMKRRQHKRHRLAESSSEEDGAMRRTRHHKHGRDSASESDGRR | failed |
